B1: hu Fab (MCSP)-Crossfab (CD3) (bispecific antibody)
heavy: EVQLQESGPGLVKPSQSLSLTCSVTGYSITSGYYWNWIRQFPGNKLEWMGYITYDGSNNYNPSLKNRISITRDTSKNQFFLKLNSVTTEDTATYYCADFDYWGQGTTLTVSSASTKGPSVFPLAPSSKSTSGGTAALGCLVKDYFPEPVTVSWNSGALTSGVHTFPAVLQSSGLYSLSSVVTVPSSSLGTQTYICNVNHKPSNTKVDKKVEPKSCDGGGGSGGGGSDIQMTQSPSSLSASVGDRVTITCRASQDIRNYLNWYQQKPGKAPKLLIYYTSRLESGVPSRFSGSGSGTDYTLTISSLQPEDFATYYCQQGNTLPWTFGQGTKVEIKSSASTKGPSVFPLAPSSKSTSGGTAALGCLVKDYFPEPVTVSWNSGALTSGVHTFPAVLQSSGLYSLSSVVTVPSSSLGTQTYICNVNHKPSNTKVDKKVEPKSC
light: DIVLTQSPSSLSASLGDRVTISCSASQGIRNYLNWYQQRPDGTVKLLIYYTSSLHSGVPSRFSGSGSGTDYSLTISNLEPEDIATYYCQQYSKLPWTFGGGTKLEIKRTVAAPSVFIFPPSDEQLKSGTASVVCLLNNFYPREAKVQWKVDNALQSGNSQESVTEQDSKDSTYSLSSTLTLSKADYEKHKVYACEVTHQGLSSPVTKSFNRGEC
chain: EVQLVESGGGLVQPGGSLRLSCAASGYSFTGYTMNWVRQAPGKGLEWVALINPYKGVSTYNQKFKDRFTISVDKSKNTAYLQMNSLRAEDTAVYYCARSGYYGDSDWYFDVWGQGTLVTVSSASVAAPSVFIFPPSDEQLKSGTASVVCLLNNFYPREAKVQWKVDNALQSGNSQESVTEQDSKDSTYSLSSTLTLSKADYEKHKVYACEVTHQGLSSPVTKSFNRGEC
B2: (scFv)2 (antiMCSP/anti huCD3e) (bispecific antibody)
scFv: DIVLTQSPSSLSASLGDRVTISCSASQGIRNYLNWYQQRPDGTVKLLIYYTSSLHSGVPSRFSGSGSGTDYSLTISNLEPEDIATYYCQQYSKLPWTFGGGTKLEIKGGGGSGGGGSGGGGSEVQLQESGPGLVKPSQSLSLTCSVTGYSITSGYYWNWIRQFPGNKLEWMGYITYDGSNNYNPSLKNRISITRDTSKNQFFLKLNSVTTEDTATYYCADFDYWGQGTTLTVSSGGGGSEVQLVESGGGLVQPGGSLRLSCAASGYSFTGYTMNWVRQAPGKGLEWVALINPYKGVSTYNQKFKDRFTISVDKSKNTAYLQMNSLRAEDTAVYYCARSGYYGDSDWYFDVWGQGTLVTVSSVEGGSGGSGGSGGSGGVDDIQMTQSPSSLSASVGDRVTITCRASQDIRNYLNWYQQKPGKAPKLLIYYTSRLESGVPSRFSGSGSGTDYTLTISSLQPEDFATYYCQQGNTLPWTFGQGTKVEIKHHHHHH

Columns and labels:
[1] = target: human MCSP (human, UniProt Q6UVK1 30-2322); assay: cell-based or functional assay
Sequence of human MCSP (Q6UVK1 30-2322): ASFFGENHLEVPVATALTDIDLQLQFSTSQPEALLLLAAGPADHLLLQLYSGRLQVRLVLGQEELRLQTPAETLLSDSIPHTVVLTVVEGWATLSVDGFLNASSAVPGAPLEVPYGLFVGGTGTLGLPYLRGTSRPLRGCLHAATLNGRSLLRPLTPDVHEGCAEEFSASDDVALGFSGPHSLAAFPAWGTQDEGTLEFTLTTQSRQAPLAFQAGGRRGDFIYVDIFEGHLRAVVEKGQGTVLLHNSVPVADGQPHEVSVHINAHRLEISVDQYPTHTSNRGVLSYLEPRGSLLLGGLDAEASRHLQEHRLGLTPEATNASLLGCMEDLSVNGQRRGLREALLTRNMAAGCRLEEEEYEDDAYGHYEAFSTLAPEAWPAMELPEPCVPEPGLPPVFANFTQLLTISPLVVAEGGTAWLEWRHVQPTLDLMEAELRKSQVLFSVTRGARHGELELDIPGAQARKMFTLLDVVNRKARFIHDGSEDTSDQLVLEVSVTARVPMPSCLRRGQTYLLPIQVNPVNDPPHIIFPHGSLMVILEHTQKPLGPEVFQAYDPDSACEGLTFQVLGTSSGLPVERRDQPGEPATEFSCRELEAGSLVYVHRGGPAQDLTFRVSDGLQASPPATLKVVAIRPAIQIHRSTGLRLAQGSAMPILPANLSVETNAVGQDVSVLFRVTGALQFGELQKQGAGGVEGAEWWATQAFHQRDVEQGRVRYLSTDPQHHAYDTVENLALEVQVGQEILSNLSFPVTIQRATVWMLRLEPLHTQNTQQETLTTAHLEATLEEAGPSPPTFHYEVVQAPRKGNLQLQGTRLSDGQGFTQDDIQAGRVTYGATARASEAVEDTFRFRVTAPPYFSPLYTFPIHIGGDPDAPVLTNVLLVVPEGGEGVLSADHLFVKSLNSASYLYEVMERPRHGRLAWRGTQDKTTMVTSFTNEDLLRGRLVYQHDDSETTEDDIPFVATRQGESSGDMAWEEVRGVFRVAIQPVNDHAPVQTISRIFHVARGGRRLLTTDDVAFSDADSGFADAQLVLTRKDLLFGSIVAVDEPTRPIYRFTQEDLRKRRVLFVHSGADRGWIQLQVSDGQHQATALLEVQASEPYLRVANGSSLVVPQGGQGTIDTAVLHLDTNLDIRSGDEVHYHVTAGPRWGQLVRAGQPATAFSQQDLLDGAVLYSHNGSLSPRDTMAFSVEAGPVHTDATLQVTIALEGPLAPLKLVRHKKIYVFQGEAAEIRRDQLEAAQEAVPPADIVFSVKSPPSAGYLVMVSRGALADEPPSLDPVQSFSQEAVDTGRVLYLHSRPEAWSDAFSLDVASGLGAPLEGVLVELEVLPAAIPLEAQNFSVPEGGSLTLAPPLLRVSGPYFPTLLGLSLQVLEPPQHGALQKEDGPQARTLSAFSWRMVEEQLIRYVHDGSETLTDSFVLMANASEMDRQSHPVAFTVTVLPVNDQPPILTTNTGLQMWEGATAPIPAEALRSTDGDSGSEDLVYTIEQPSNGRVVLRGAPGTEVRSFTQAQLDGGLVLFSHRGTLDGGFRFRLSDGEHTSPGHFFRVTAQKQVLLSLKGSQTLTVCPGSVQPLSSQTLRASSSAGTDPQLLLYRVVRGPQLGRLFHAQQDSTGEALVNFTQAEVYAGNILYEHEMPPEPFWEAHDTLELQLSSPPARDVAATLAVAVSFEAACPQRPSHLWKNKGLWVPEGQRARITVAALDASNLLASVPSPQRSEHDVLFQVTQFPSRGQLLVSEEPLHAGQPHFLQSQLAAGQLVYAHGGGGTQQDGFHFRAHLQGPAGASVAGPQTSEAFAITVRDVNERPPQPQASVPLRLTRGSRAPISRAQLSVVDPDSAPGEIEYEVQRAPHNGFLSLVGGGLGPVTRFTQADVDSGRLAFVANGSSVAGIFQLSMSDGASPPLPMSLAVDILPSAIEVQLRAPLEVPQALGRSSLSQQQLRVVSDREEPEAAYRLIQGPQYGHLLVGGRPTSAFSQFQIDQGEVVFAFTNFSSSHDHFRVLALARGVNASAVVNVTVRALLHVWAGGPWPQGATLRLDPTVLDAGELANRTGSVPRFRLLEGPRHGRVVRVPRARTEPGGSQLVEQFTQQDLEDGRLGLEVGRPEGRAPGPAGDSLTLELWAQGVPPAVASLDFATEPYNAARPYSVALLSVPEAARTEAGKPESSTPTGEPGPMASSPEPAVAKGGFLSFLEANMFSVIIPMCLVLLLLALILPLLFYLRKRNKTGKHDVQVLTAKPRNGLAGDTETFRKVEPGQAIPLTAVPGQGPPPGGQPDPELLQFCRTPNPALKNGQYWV

[2] = target: human CD3 (human, UniProt P07766 23-207); assay: cell-based or functional assay
Sequence of human CD3 (P07766 23-207): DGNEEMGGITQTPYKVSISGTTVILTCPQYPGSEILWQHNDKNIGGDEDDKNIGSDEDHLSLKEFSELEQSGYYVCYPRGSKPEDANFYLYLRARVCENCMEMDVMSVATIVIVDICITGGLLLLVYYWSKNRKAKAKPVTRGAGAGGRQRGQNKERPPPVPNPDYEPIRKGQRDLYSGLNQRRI

Row | Binder | Killing (as measured by LDH release) of MV-3 tumor cells upon co-culture with human PBMCs (E:T ratio=10:1), 24 hours; EC50 [1] [pM] | Killing (as measured by LDH release) of MV-3 tumor cells upon co-culture with human PBMCs (E:T ratio=10:1), 24 hours; EC50 [2] [pM]
1 | B1 | 25.4 | 25.4
2 | B2 | 57 | 57

Source: patent US20130060011A1 (published 2013)
